Literature values as cited in article PMC3471383.

Target: FcγRI (Homo sapiens) (UniProt P12314)
Sequence of UniProt P12314 (P12314 16-292): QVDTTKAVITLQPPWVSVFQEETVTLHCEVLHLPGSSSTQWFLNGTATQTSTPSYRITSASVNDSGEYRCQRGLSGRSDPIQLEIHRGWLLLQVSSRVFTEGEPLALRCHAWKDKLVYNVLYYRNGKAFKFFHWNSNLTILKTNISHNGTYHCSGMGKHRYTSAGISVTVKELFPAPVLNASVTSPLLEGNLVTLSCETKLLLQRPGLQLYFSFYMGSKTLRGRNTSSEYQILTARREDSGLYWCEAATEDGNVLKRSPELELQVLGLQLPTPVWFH

Kd: 500 nM
Substance: SAP (from UniProt P02743)
